No end group written: not given here. *: point of attachment. Biotin = O=C1N[C@H]2[C@H](CS[C@H]2CCCCC(=O)*)N1
T1: His-LXRβ/FLAG-RXRα heterodimer (ligand binding domains of human LXRβ and human RXRα) (human) (UniProt P55055)
T1 sequence 1: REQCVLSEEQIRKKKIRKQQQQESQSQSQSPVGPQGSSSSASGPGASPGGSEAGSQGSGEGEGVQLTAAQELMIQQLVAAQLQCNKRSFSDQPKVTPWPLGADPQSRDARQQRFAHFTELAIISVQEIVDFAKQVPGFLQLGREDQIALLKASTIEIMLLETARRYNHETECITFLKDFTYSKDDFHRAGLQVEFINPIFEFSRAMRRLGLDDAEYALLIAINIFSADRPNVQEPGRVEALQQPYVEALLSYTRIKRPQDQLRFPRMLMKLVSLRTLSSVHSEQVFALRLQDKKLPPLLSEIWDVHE
T1 sequence 2: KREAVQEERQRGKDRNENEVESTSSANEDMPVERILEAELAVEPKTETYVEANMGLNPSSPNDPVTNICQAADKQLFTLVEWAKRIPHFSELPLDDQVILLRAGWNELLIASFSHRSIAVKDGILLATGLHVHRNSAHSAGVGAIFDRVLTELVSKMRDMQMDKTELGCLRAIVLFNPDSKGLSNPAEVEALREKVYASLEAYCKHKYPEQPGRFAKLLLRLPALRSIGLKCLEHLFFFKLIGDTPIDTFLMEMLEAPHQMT

T2: His-LXRα/FLAG-RXRα heterodimer (ligand binding domains of human LXRα and human RXRα) (human, UniProt Q13133 164-447; P19793 201-462)
T2 construct: Co-expressed in E. coli BL21(DE3) from pET15b-LXRα/FLAG-RXRα and purified together on Ni2+ resin; also called His-LXRα and FLAG-RXRα; heterodimer comprising LXRα and RXRα
T2 sequence 1: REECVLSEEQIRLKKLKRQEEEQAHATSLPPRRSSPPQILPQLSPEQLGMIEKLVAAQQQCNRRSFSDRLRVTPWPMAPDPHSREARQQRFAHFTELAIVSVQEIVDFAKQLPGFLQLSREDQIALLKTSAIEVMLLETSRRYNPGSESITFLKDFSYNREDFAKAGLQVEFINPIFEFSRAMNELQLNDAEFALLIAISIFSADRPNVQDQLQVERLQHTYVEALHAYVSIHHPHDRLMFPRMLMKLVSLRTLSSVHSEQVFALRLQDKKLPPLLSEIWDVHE
T2 sequence 2: T1 sequence 2

T3: His-LXRβ/FLAG-RXRα heterodimer (ligand binding domains of human LXRβ and human RXRα) (human, UniProt P55055 155-460; P19793 201-462, limits assumed)
T3 construct: Co-expressed in E. coli BL21(DE3) from pET15b-LXRβ/FLAG-RXRα and purified together on Ni2+ resin; also called His-LXRβ and FLAG-RXRα; heterodimer comprising LXRβ and RXRα
T3 sequence 1: T1 sequence 1
T3 sequence 2: T1 sequence 2

B1: SRC-1-2 peptide … (the second LXXLL motif from the N-terminal side of SRC-1) (peptide)
peptide: Biotin-CPSSHSSLTERHKILHRLLQEGSPS
B2: TIF2 peptide … (aa 679-703) (peptide)
peptide: Biotin-HGTSLKEKHKILHRLLQDSSSPVDL
B3: SRC-1-3 peptide … (the third LXXLL motif from the N-terminal side of SRC-1) (peptide)
peptide: Biotin-KESKDHQLLRYLLDKDEKDL
B4: PNRC peptide … (aa 848-872) (peptide)
peptide: Biotin-KNPTSCSRRFYQLTKLLDSVQPIAR
B5: TRAP220 peptide … (aa 590-614) (peptide)
peptide: Biotin-GHGEDFSKVSQNPILTSLLQITGNG
B6: ASC-2 NR-2 peptide … (LXXLL motif on the C-terminal side of ASC-2) (peptide)
peptide: Biotin-SPAMREAPTSLSQLLDNSGAPNVTIKPPGL
B7: TIF2 NRB2 peptide … (aa 731-755) (peptide)
peptide: Biotin-KQEPVSPKKKENALLRYLLDKDDTK
B8: ASC-2 NR-1 peptide … (LXXLL motif on the N-terminal side of ASC-2) (peptide)
peptide: Biotin-NKDVTLTSPLLVNLLQSDISAGHFGVNNKQ
B9: PERC NRB2 peptide … (aa 332-354) (peptide)
peptide: Biotin-HSKASWAEFSILRELLAQDVLCD
B10: DAX1 peptide … (aa 132-156) (peptide)
peptide: Biotin-CCFCGEDHPRQGSILYSLLTSSKQT
modifications: cysteine pairing not given here
B11: ACTR NRB3 peptide … (aa 728-753) (peptide)
peptide: Biotin-SPKKKENNALLRYLLDRDDPSDALSK
B12: TIF2 peptide HGTSLKEKHKILHRLLQDSSSPVDL (aa 679-703) (peptide)
peptide: Biotin-HGTSLKEKHKILHRLLQDSSSPVDL
B13: ASC-2 NR-1 peptide NKDVTLTSPLLVNLLQSDISAGHFGVNNKQ (LXXLL motif on the N-terminal side of ASC-2) (peptide)
peptide: Biotin-NKDVTLTSPLLVNLLQSDISAGHFGVNNKQ
B14: SRC-1-3 peptide KESKDHQLLRYLLDKDEKDL (the third LXXLL motif from the N-terminal side of SRC-1) (peptide)
peptide: Biotin-KESKDHQLLRYLLDKDEKDL
B15: SRC-1-4 peptide QKPTSGPQTPQAQQKSLLQQLLTE (the fourth LXXLL motif from the N-terminal side of SRC-1) (peptide)
peptide: Biotin-QKPTSGPQTPQAQQKSLLQQLLTE
B16: PGC-1α peptide DGTPPPQEAEEPSLLKKLLLAPANT (aa 130-154) (peptide)
peptide: Biotin-DGTPPPQEAEEPSLLKKLLLAPANT
B17: SRC-1-2 peptide CPSSHSSLTERHKILHRLLQEGSPS (the second LXXLL motif from the N-terminal side of SRC-1) (peptide)
peptide: Biotin-CPSSHSSLTERHKILHRLLQEGSPS
B18: ASC-2 NR-2 peptide SPAMREAPTSLSQLLDNSGAPNVTIKPPGL (LXXLL motif on the C-terminal side of ASC-2) (peptide)
peptide: Biotin-SPAMREAPTSLSQLLDNSGAPNVTIKPPGL
notes: also called ASC2 MR-2
B19: PNRC peptide KNPTSCSRRFYQLTKLLDSVQPIAR (aa 848-872) (peptide)
peptide: Biotin-KNPTSCSRRFYQLTKLLDSVQPIAR
B20: TIF2 NRB2 peptide KQEPVSPKKKENALLRYLLDKDDTK (aa 731-755) (peptide)
peptide: Biotin-KQEPVSPKKKENALLRYLLDKDDTK
B21: DAX1 peptide CCFCGEDHPRQGSILYSLLTSSKQT (aa 132-156) (peptide)
peptide: Biotin-CCFCGEDHPRQGSILYSLLTSSKQT
modifications: cysteine pairing not given here
B22: PERC NRB2 peptide HSKASWAEFSILRELLAQDVLCD (aa 332-354) (peptide)
peptide: Biotin-HSKASWAEFSILRELLAQDVLCD
B23: TRAP220 peptide GHGEDFSKVSQNPILTSLLQITGNG (aa 590-614) (peptide)
peptide: Biotin-GHGEDFSKVSQNPILTSLLQITGNG
B24: ACTR NRB3 peptide SPKKKENNALLRYLLDRDDPSDALSK (aa 728-753) (peptide)
peptide: Biotin-SPKKKENNALLRYLLDRDDPSDALSK

These binders were tested against T1, His-LXRβ/FLAG-RXRα heterodimer (ligand binding domains of human LXRβ and human RXRα) (human) (assay: FRET (665/620 nm), anti-His tag antibody + streptavidin, biotinylated peptide; with Compound A, relative to DMSO-only control).

Binder | % of control
B1 | 120 % of control
B2 | 108 % of control
B3 | 111 % of control
B4 | 109 % of control
B5 | 111 % of control
B6 | 120 % of control
B7 | 125 % of control
B8 | 114 % of control
B9 | 104 % of control
B10 | 116 % of control
B11 | 129 % of control

Each binder was assayed against T1, His-LXRβ/FLAG-RXRα heterodimer (ligand binding domains of human LXRβ and human RXRα) (human) (assay: FRET (665/620 nm), anti-His tag antibody + streptavidin, biotinylated peptide; with Compound B, relative to DMSO-only control).

Binder | % of control
B1 | 119 % of control
B2 | 114 % of control
B3 | 108 % of control
B4 | 107 % of control
B5 | 116 % of control
B6 | 116 % of control
B7 | 124 % of control
B8 | 115 % of control
B9 | 115 % of control
B10 | 120 % of control
B11 | 103 % of control

These binders were tested against T2, His-LXRα/FLAG-RXRα heterodimer (ligand …) (assay: FRET (665/620 nm), anti-His tag antibody + streptavidin, biotinylated peptide; with Compound A, relative to DMSO-only control).

Binder | % of control
B12 | 267 % of control
B13 | 156 % of control
B14 | 181 % of control
B15 | 207 % of control
B16 | 362 % of control
B17 | 267 % of control
B18 | 254 % of control

These binders were tested against T3, His-LXRβ/FLAG-RXRα heterodimer (ligand …) in the same assay as above.

Binder | % of control
B15 | 155 % of control
B16 | 191 % of control

These binders were tested against T2, His-LXRα/FLAG-RXRα heterodimer (ligand …) (assay: FRET (665/620 nm), anti-His tag antibody + streptavidin, biotinylated peptide; with Compound B, relative to DMSO-only control).

Binder | % of control
B12 | 157 % of control
B13 | 116 % of control
B14 | 112 % of control
B15 | 128 % of control
B16 | 207 % of control
B17 | 182 % of control
B18 | 137 % of control

The binders below were run against T3, His-LXRβ/FLAG-RXRα heterodimer (ligand …) in the same assay as above.

Binder | % of control
B15 | 144 % of control
B16 | 195 % of control

Target: T2, His-LXRα/FLAG-RXRα heterodimer (ligand …)
Experiment: FRET (665/620 nm), anti-His tag antibody + streptavidin, biotinylated peptide; with Compound A, relative to DMSO-only control
Remark: another data set of the same source
Experimental: (§1) Next, 10 μl of peptide reaction solution (1.00 μl of 5 μM peptide, 1.00 μl of 10× PBS, 2.50 μl of 2 M KF, 0.10 μl of 10% NP40, 0.20 μl of streptavidin (CIS Bio International) and 5.20 μl of H₂O) were added to each well of the 384-well assay plate and incubated for 17 hours at 4° C. The peptide added here was comprising of any of the amino acid sequences of (a) to (g) below, and the amino acid of the N-terminal was biotinylated.
(§2) The value obtained by multiplying 1000 by the value resulting from dividing the measured value at 665 nm when applying excitation light at 337 nm by the measured value at 620 nm was determined. This value was then divided by the value determined by the same method when only DMSO was added without adding LXR ligand (Compound A or Compound B), and this value was then multiplied by 100 and indicated as the percentage relative to the control (% of control) as shown in Table 6.
(§3) (1) According to the same method as Example 2) (using the following peptides (h) to (m), instead of the peptides (a) to (g) in Example 2), the amount of coactivator bound to the heterodimer LXRα and RXRα were determined.

Binder | % of control
B19 | 140 % of control
B20 | 268 % of control
B21 | 158 % of control
B22 | 127 % of control
B23 | 131 % of control
B24 | 167 % of control

Target: T2, His-LXRα/FLAG-RXRα heterodimer (ligand …)
Experiment: FRET (665/620 nm), anti-His tag antibody + streptavidin, biotinylated peptide; with Compound B, relative to DMSO-only control
Remark: another data set of the same source
Experimental: as §1, §2, §3

Binder | % of control
B19 | 110 % of control
B20 | 127 % of control
B21 | 107 % of control
B22 | 104 % of control
B23 | 107 % of control
B24 | 92 % of control

Reference: patent US20090098570A1 (Daiichi Sankyo, published 2009)
